Residue numbers refer to the chain shown, from its start.
Key:
[1] = target: Chromobacterium violaceum OhrR (CV0210), wild type, N-terminal histidine tag (Chromobacterium violaceum); test: cross-linking; intermolecular disulfide bond formed on oxidation, read by 14% nonreducing SDS-PAGE: DTT-reduced, desalted OhrR (10 µM) treated with 100 µM cumene hydroperoxide for 30 min, then alkylated with 100 mM NEM for 2 h; Coomassie stain
[2] = test system: T1, OhrR WT (Chromobacterium violaceum ATCC 12472), ORF:deafe3b3; test: EMSA; conditions: EMSA: 20 mM Tris-HCl pH 7.4, 50 mM KCl, 1 mM DTT, 1 mM EDTA, 5% glycerol, 0.05 mg/ml BSA, 0.1 mg/ml salmon sperm DNA, 25 C, 25 min; footprinting the same …
T1 sequence: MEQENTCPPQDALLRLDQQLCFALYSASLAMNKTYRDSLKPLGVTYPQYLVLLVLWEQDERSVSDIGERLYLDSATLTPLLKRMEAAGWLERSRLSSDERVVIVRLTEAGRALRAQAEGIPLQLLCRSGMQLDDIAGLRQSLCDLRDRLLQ

[3] = test system: T1, OhrR WT (Chromobacterium violaceum ATCC 12472), ORF:deafe3b3; test: DNase I footprinting; conditions: EMSA: 20 mM Tris-HCl pH 7.4, 50 mM KCl, 1 mM DTT, 1 mM EDTA, 5% glycerol, 0.05 mg/ml BSA, 0.1 mg/ml salmon sperm DNA, 25 C, 25 min; footprinting the same …
[4] = test system: T2, OhrR C126S C126S (Chromobacterium violaceum ATCC 12472), ORF:deafe3b3; test: EMSA; conditions: EMSA: 20 mM Tris-HCl pH 7.4, 50 mM KCl, 1 mM DTT, 1 mM EDTA, 5% glycerol, 0.05 mg/ml BSA, 0.1 mg/ml salmon sperm DNA, 25 C, 25 min; footprinting the same …
T2 sequence: T1 sequence with C126S

Substance | stoichiometry N [1] | binding [2] | binding [3] | binding [4]
Chromobacterium violaceum OhrR (CV0210), wild type, N-terminal histidine tag (natural protein) | 2 |  |  | 
TGAATTCAATCCGTGACGCCGCACAGGGCGCCGGAATGGAACATTCGCGCGCGAACCGGAAAGCGACTCAGCAACGCATCCAGCCTGTCGACACATGCCTCAGCCACATCAGGACTCCTTATCAAATTTTCAGGATCCTATGCAGCTTATCGTCATTTTGCTTGGCATAAAGTTTCTCCAGCCAAACGGCTTAAGCCCACCAACCATCAGGAGCACATCATGTCGATTGAAACCATTCTGTACCGGACCCAAGCCACCGTAAGCTTA (double strand) [ohrB promoter] |  | no binding |  | 
TGGATCCCTCGCTGGCCGATCTGGGACGCGGCCCGGTGCGGGCGGCCGCCTGATCGCGGTTTCGCGCCCGCTTGGCGCGGGCGCGTCGCGGTTCCGCATAATAATAAATTGCTTGCAATTAAATAGTGCACTATTTATTATGCGGCCATGGAACAAGAAAACACGTGCCCGCCGCAGGACGCGCTTTTGCGGCTGGACCAGCAACTCTGCTTCGCGCTGTATTCCGCCAAGCTTA (double strand) [ohrR promoter] |  | binds | binds | binds
TAAGCTTGCGGTGGCTTCGGCGGTATACAGTACTTTTTGCAGAGGGTTCATCTGGCTCTCCTTGGCTTGACGCCGTTGCGATTAAAATAATGAGCTATTTAATAGTGCACTATCTAACTATCAAAACCCTGACGGGTTCATTGCAGCAGCCGGTCGCGCAGATCGCACAGCGACTGCCTCAATCCGGCGATATCGTCCAGTTGCATTCCGCTCCGGCAGGATCCA (double strand) [ohrA promoter] |  | binds | binds | binds
